Article PMC8234171

Experiments:
[1] = target: human mitochondrial complex I (NADH-coenzyme Q oxidoreductase) (human (endogenous in T-REx-293 shRNA-C3))
[2] = target: human mitochondrial complex I (NADH-coenzyme Q oxidoreductase) (human (endogenous in T-REx-293 shRNA-C3)); experiment: native gel or EMSA; high-resolution clear native gel electrophoresis (HrCNE, 6.5% gel, 4 °C) of DDM-solubilised mitochondria of shRNA-C3 cells treated with 0.03 mg/mL TAT-NDUFS8 for 0-48 h; immunoblot with anti-NDUFS8 at the complex I location; intensity normalised to complex V (ATPase α subunit)

“TAT-NDUFS8 fusion protein (from UniProt O00217 35-210)” was tested, and the complex I in-gel activity (NADH/NBT staining after HrCNE) of shRNA-C3 cells treated with 0.03 mg/mL TAT-NDUFS8 for 48 h; untreated shRNA-C3 cells about 83.6% of the wild type (% of the wild-type activity) [1] was 109 and the intensity of NDUFS8 at the complex I location after 48 h of treatment [2] was 105%.
